Data on 1 substance can be found in PMC7395514.

The target in the test is Celsr3 (UniProt Q91ZI0). Briefly: co-immunoprecipitation, both in same cell. The settings on record: reference: Fzd3 wild type; sites T598.

Take “Frizzled3 (Fzd3) (from UniProt Q61086) Fzd3 T598A”: the “binding against the reference” value is listed as “weaker”.
